Reference: patent WO2011040973A2 (dated 2011)

Columns and labels:
[1] = molecular target: T1, huFAP coated on a surface plasmon resonance chip (human, UniProt Q12884 26-760, limits assumed); experiment: surface plasmon resonance, low-density huFAP coated chip
T1 construct: also called human FAP
T1 sequence (looked up): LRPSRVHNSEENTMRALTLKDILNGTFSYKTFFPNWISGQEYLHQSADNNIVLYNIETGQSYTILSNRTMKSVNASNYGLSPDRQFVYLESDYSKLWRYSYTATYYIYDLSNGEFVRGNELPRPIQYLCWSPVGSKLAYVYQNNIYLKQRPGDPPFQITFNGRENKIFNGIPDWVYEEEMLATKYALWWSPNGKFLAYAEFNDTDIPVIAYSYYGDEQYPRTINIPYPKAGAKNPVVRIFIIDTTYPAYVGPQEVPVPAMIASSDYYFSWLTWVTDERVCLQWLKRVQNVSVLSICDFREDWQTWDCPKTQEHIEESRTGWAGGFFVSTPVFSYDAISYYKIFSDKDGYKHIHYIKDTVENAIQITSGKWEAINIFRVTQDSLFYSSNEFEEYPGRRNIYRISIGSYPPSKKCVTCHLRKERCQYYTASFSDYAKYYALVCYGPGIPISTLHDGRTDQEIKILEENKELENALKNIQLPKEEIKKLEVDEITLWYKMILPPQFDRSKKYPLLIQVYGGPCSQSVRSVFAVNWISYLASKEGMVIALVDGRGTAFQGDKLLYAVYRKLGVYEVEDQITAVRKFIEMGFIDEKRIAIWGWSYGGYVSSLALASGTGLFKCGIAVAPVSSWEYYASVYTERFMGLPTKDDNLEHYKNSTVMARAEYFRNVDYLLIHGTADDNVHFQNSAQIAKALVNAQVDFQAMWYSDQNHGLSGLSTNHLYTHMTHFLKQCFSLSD

[2] = molecular target: T2, human dipeptidyl peptidase IV (DPPIV, CD26), expressed in HEK293 cells (human, UniProt P27487 1-766); experiment: ELISA on cell-lysate-coated plates (HEK293 huCD26+), Fig. 3
T2 construct: whole, on cells; Used as lysate of transfected HEK293 cells coated on plates (ELISA), on the cells (flow cytometry screening) and as immunoprecipitate; also called huCD26; HEK293 huCD26+
T2 sequence (P27487 whole entry): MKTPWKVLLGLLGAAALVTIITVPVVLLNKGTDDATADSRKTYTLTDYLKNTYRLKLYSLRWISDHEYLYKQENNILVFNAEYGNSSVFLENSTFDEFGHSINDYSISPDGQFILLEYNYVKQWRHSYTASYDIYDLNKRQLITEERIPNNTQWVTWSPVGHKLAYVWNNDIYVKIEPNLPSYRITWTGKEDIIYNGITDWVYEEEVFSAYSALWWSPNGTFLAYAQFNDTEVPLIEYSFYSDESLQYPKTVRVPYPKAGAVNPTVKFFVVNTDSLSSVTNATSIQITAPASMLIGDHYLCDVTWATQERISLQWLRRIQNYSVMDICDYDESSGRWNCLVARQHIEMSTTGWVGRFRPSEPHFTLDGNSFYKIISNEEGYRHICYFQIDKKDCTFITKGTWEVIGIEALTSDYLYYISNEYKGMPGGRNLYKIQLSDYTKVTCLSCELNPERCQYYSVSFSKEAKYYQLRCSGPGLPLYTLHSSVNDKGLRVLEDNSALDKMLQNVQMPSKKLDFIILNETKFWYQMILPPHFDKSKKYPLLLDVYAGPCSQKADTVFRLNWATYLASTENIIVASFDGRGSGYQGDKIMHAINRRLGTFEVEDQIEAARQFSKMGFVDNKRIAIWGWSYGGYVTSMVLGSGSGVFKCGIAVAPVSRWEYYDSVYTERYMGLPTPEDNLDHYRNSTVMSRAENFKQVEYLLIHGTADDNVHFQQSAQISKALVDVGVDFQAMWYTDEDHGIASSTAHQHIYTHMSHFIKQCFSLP

[3] = molecular target: T3, murine Fibroblast Activation Protein (FAP), expressed in HEK293 cells (mouse, UniProt P97321 1-761); experiment: serial dilutions of Fab on 293 muFAP+ cells
T3 construct: whole, on cells; Used on transfected HEK293 cells (flow cytometry) and as lysate of those cells coated on plates (ELISA); also called mouse FAP; muFAP
T3 sequence (looked up): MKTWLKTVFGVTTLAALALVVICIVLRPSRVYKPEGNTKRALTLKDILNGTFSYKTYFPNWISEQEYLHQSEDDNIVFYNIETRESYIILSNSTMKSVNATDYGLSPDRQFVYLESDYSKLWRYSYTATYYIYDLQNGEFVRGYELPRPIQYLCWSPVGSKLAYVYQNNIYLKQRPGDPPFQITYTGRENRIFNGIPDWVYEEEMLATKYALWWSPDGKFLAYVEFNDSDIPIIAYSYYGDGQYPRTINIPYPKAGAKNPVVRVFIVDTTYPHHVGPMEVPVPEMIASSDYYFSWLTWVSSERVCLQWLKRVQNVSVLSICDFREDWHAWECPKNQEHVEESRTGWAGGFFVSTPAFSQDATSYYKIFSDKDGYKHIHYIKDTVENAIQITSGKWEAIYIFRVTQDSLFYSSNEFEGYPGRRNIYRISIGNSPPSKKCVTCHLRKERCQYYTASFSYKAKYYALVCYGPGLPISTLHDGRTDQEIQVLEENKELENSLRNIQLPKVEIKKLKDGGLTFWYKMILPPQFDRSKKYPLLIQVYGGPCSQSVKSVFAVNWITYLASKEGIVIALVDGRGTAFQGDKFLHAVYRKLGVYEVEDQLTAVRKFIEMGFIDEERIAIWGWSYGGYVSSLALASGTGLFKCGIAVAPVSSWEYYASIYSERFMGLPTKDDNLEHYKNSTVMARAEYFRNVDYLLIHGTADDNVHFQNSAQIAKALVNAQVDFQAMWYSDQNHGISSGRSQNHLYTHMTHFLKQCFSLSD

[4] = molecular target: T4, human Fibroblast Activation Protein (FAP), expressed in transfected cells (human, UniProt Q12884 1-760); experiment: binding to antigen expressing cell lines, apparent KD of bivalent IgG
T4 construct: whole, on cells; Used on transfected HT1080 / HEK293 cells (flow cytometry), as lysates of those cells coated on plates (ELISA) and as immunoprecipitate from their extracts; also called human FAP; huFAP
T4 sequence (looked up): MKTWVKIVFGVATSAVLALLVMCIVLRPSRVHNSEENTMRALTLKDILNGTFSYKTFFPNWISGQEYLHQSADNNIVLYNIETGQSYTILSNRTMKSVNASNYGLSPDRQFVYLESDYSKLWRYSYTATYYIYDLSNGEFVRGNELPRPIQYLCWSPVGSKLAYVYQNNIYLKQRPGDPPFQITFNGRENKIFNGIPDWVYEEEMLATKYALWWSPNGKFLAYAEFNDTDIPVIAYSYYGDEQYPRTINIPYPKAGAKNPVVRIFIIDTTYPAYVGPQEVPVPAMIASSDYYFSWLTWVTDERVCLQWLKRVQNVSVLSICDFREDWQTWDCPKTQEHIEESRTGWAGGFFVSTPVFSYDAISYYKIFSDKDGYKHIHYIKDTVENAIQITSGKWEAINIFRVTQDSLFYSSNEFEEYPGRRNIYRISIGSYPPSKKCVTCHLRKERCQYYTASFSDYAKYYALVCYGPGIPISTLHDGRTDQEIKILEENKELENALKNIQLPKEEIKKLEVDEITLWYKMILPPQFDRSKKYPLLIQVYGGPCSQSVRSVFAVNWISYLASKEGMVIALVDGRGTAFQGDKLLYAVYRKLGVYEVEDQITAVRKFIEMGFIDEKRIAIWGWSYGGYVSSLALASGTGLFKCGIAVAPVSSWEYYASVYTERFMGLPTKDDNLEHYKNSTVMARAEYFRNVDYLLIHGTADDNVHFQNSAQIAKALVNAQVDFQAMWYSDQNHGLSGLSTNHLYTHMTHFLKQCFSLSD

B1: Fab ESC14 (Fab, V domains shown)
VH: EVQLVQSGAEVKKPGASVKVSCKASGYTFTSYGISWVRQAPGQGLEWMGWISAYNGNTNYAQKLQGRVTMTTDTSTSTAYMELRSLRSDDTAVYYCARDWSRSGYYLPDYWGQGTLVTVSS
VL: DVVMTQSPLSLPVTLGQPASISCRSSQSLLHSNGYNYLDWYLQRPGQSPHLLIFLGSNRASGVPDRFSGSGSGTDFTLKISRVEAEDVGIYYCMQALQTPPTFGQGTKVEIK
notes: Fully human Fab from a non-immunized phage library, made in E. coli TG-1, with myc tag and His tag
For B1, the Kd [1] was 210 nM, the binding result [2] was “no binding (tested: 100 nM)” and the Kd [3] was 251 nM.

B2: ESC14 IgG1 (antibody, V domains shown)
VH: EVQLVQSGAEVKKPGASVKVSCKASGYTFTSYGISWVRQAPGQGLEWMGWISAYNGNTNYAQKLQGRVTMTTDTSTSTAYMELRSLRSDDTAVYYCARDWSRSGYYLPDYWGQGTLVTVSS
VL: DVVMTQSPLSLPVTLGQPASISCRSSQSLLHSNGYNYLDWYLQRPGQSPHLLIFLGSNRASGVPDRFSGSGSGTDFTLKISRVEAEDVGIYYCMQALQTPPTFGQGTKVEIK
notes: Variable domains cloned into a full human IgG1 format, made in NS0 cells; also called IgG1 antibody ESC14; ESC14 antibody
Binder B2 has a Kd [4] of ~1 nM.

B3: Fab ESC11 (Fab, V domains shown)
VH: HVQLQESGPGLVKPSETLSLTCTVSGGSISSNNYYWGWIRQTPGKGLEWIGSIYYSGSTNYNPSLKSRVTISVDTSKNQFSLKLSSVTAADTAVYYCARGARWQARPATRIDGVAFDIWGQGTMVTVSS
VL: ETTLTQSPGTLSLSPGERATLSCRASQTVTRNYLAWYQQKPGQAPRLLMYGASNRAAGVPDRFSGSGSGTDFTLTISRLEPEDFAVYYCQQFGSPYTFGQGTKVEIK
notes: as for B1
For B3, the Kd [1] was 10 nM, the binding result [2] was “no binding (tested: 100 nM)” and the Kd [3] was 51 nM.

B4: ESC11 IgG1 (antibody, V domains shown)
VH: QVQLQESGPGLVKPSETLSLTCTVSGGSISSNNYYWGWIRQTPGKGLEWIGSIYYSGSTNYNPSLKSRVTISVDTSKNQFSLKLSSVTAADTAVYYCARGARWQARPATRIDGVAFDIWGQGTMVTVSS
VL: ETTLTQSPGTLSLSPGERATLSCRASQTVTRNYLAWYQQKPGQAPRLLMYGASNRAAGVPDRFSGSGSGTDFTLTISRLEPEDFAVYYCQQFGSPYTFGQGTKVEIK
notes: Variable domains cloned into a full human IgG1 format, made in NS0 cells; also called IgG1 antibody ESC11; ESC11 antibody
In the case of B4, the Kd [4] is reported as ~1 nM.
